Literature values as cited in publication PMC6126569.
Values joined by “and” are separate entries in the source; they are usually repeats but may differ in a detail not shown here. Equal values may be shown once.

Target: Bac7 (Bos taurus) (UniProt P19661)
Test: SRCD

Chain of SbmA (P0AFY6 whole entry): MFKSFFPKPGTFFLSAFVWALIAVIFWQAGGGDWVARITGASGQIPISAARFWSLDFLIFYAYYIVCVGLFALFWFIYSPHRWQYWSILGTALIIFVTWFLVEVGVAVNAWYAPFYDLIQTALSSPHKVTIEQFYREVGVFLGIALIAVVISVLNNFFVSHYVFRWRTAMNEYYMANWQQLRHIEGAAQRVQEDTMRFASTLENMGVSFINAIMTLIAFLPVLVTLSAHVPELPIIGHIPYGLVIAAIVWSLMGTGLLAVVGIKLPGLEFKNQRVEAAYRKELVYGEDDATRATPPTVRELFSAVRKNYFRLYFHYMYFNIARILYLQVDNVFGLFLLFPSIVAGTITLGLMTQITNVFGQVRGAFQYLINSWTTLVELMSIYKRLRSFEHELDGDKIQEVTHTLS
Chain of Bac7 (Bos taurus) (P19661 131-189): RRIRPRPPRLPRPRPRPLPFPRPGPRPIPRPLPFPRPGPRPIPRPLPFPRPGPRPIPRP

- Kd: 260 nM and 280 nM
Substance: SbmA (from UniProt P0AFY6)
